{"source": "paper PMC7170532", "target": "latent myostatin (human) (UniProt O14793)", "test": "SEC-MALS; SRT SEC-500 column, 20 mM phosphate, 200 mM NaCl pH 6.8; latent myostatin alone; 94 kDa observed, 82 kDa calculated", "data": [{"substance": "latent myostatin (from UniProt O14793 267-375) (complex)", "values": [{"measurement": "stoichiometry N", "result": 2}]}]}
